Target: HLA-B*51:01 (human | human (endogenous in 721.221))

KIR3DL1, sequence (P43629 22-444): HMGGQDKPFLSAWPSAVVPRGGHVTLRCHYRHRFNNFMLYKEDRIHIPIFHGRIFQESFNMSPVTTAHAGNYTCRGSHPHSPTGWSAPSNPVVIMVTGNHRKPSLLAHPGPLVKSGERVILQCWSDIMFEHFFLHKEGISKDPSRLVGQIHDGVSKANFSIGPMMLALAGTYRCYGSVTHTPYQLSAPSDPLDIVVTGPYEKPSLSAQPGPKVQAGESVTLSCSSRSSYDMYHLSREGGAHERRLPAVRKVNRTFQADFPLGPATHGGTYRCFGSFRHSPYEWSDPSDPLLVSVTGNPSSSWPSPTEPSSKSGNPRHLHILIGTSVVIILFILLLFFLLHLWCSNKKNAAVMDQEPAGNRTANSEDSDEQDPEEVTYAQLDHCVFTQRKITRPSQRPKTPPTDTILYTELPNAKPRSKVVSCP

- degranulation: mean frequency of CD107a+ cells in the KIR3DL1 single positive NK subset after co-culture (1:1, 3 hours) with 221-B*51:01-shERAP1 (% CD107a+ cells): 25.8
Substance: KIR3DL1 (from UniProt P43629 22-444) (receptor)

From paper PMC8669763
